# ± gives the uncertainty stated by the source.
# Assay: amyloid nucleation score (Sup35N fusion, yeast selection) (log enrichment); library NNK1; higher = more nucleation; inactive = no reads after selection
# How it was run: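 Psi-negative yeast expressed Sup35N fused to peptides of 20 random codons. They were induced 24 hours with 100 μM copper sulfate, grown 7 days at 30°C without adenine and uracil, and their plasmid inserts from input and output were Illumina-sequenced. The nucleation score is the DiMSum log enrichment of output over input reads, centred on the mode score of non-aggregating sequences. Sequences with under 100 input reads were excluded.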
row,Substance,amyloid nucleation score
1,YAKVLTK,-0.104 ± 0.33
2,KGYGRFMSFF,-0.697 ± 0.4
3,LRVKIHTIVIQWIANNGARL,0.39 ± 0.74
4,MNGYLRLHSDTNCSCC,inactive
5,SAVINFLRSQKLLNCGMGVT,-0.529 ± 1.7
6,VRLFV,2.14 ± 0.65
7,SSIIILSNMLTYK,3.61 ± 0.1
8,CLKHLWLRQSKEKVD,inactive
9,TQSCF,0.074 ± 0.84
10,YVSADLGMYTVDGAEFYCEN,0.106 ± 0.43
11,TKVGFFQRLGYEQVCNCKML,0.244 ± 0.49
12,RMDWWLEERASSSCDEELLT,inactive
13,RFIVM,0.304 ± 0.78
14,YGSGPNDWLYVWGNSLWQKV,-0.106 ± 0.66
15,LQNSDVFHADLQIISPTFCP,-0.826 ± 1.8
16,RIDLGQTVFMVKYIAA,0.122 ± 0.17
17,RAMKWLYVSNNDNMRKHFFS,-0.712 ± 0.42
18,DIYIMSNGLGYYFFSTNVRM,2.55 ± 0.19
19,FENIDLP,-0.364 ± 0.62
20,VTVTYIRCTR,1.25 ± 0.63
21,GRGQWQPAFTKLPYLILSVV,-0.152 ± 0.94
22,SFAVCGKLDHWCPCSAITLV,1.08 ± 0.64

row,Substance,amyloid nucleation score
1,FCMTTSVSSNTLV,-0.013 ± 0.94
2,RTSVLVSASALPNSLSFRQG,-0.647 ± 1.1
3,PIYVAGLGIVI,-0.308 ± 1.1
4,VFFGVVQLICDGVKEIFPNL,4 ± 0.1
5,MVKYPVTKNSSLPCSTRLTF,1.01 ± 0.47
6,IHSGQAEMGTLRYHSNKCKD,-0.554 ± 1.7
7,YFAVDDNYLHIQTSVRSRCS,0.036 ± 0.41
8,CIILKTIPIIDY,inactive
9,QHTTVRFRTGDKRNQFLSSI,-0.843 ± 1.1
10,VFYVFWYFRLCI,0.035 ± 0.2
11,GSRSLLQR,-1.06 ± 1.2
12,YFVMGLIFGLKRLLVLAIRR,-0.53 ± 0.3
13,YTYMHRNDEFALM,inactive
14,RASILCA,0.268 ± 0.66
15,YTTIYLVIFSFC,6.48 ± 0.068
16,ISICTMLLFSPVS,-0.894 ± 0.83
17,RKEISGLMVLLEANLVTWFV,-0.085 ± 0.3
18,TQIAESYLVQANNSAEATAA,-0.32 ± 1.4
19,WGTPLMV,0.31 ± 0.63
20,ILSLIVFNYDYCSKVWNLLG,-1.53 ± 0.66
21,NFKVQREKGF,inactive
22,RRGGDSMDYNCFSARSRAFM,-0.146 ± 0.71

row,Substance,amyloid nucleation score
1,FAESSVVSFHLCRQMFASTA,-0.88 ± 0.52
2,RACLQFRQLVGDRLG,1.52 ± 0.73
3,VKYLVIL,-0.618 ± 0.47
4,MSSLQG,-0.246 ± 1.1
5,EDNRKIRRVMSIQS,0.063 ± 0.57
6,SELWDLG,-0.197 ± 0.85
7,VMAPERST,-0.905 ± 1.6
8,LSIIVHNCGVLVVSMTLTVI,-0.172 ± 1.6
9,NWVLGVAYRRLRHKCSMYRV,0.387 ± 0.67
10,SDQDTGLHTLPCHTRS,inactive
11,GKMLFRGSGIRPCGALIGVK,-0.561 ± 1.1
12,IEGMCGDMVMTYYIFLDSCG,1.07 ± 0.36
13,WSVLCSFRSSSNQAFVFRVQ,-0.827 ± 0.77
14,MRNYGILFPYLFYMSVSRVL,-0.067 ± 1.7
15,GVKSQYALNKLGCGELWLRL,0.364 ± 0.28
16,NTTHDGLRCEIRVWSENRRR,1.39 ± 0.3
17,LGSNNWVFGYGR,inactive
18,RTMKRSLSCVHCLLCLSPCQ,-0.102 ± 0.29
19,SDYRRPKEPVSS,3.01 ± 0.16
20,DDMVPNWARVTCLSQNWL,0.385 ± 0.54
21,RYVLFALWWYKVGAEIYNKV,0.48 ± 0.69
22,TKNVLLTYGHPMLDMFAVVY,inactive

row,Substance,amyloid nucleation score
1,IDSVQFTLQTASHPRSDDDC,-0.143 ± 0.58
2,RAGTFTVSTQGPS,0.268 ± 0.28
3,SCSWFFTYIVVAVNTLSISY,-0.444 ± 0.75
4,YIDSLISLITDSCMNHRDGR,-0.29 ± 1.1
5,TPGNVG,0.514 ± 0.26
6,VVSNVPVWTSGYYHHCCHRC,0.856 ± 0.79
7,VRTLLWSS,-1.55 ± 2.4
8,AILVGMFYAKTVGGQYRVHG,0.369 ± 0.61
9,YTLILREIYWCC,-0.128 ± 0.54
10,LLRFTCSILLRA,0.437 ± 0.79
11,GCSIEFFDYGGY,-0.183 ± 0.74
12,VISGSDVLRYPRYSNAAFRT,inactive
13,RIYTTWGHYDNDHQIYLFRG,-0.601 ± 0.36
14,FASRNISG,-0.054 ± 0.5
15,SALRTCKFN,0.826 ± 0.56
16,KISCIISWLYDFIIKLAFFT,-0.931 ± 0.68
17,FCNWANLYGTWLMLCVGSGR,0.712 ± 0.42
18,ELNPMFKTQHWLNSWNIWLL,2.47 ± 0.089
19,GYENGDGDERD,-0.403 ± 1.2
20,VADAPMR,0.944 ± 0.9
21,GWYFYG,0.702 ± 0.32
